B1: ZNF263 (parent)
chain: QRTHTGEKPYKCPECGEIFAHSSN

Variants of: B1
Experiment: protein stability index of a GFP-peptide fusion (GPS, HEK-293T) (PSI 1-6); higher = more stable
Conditions: c terminus: a fixed tail appended
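Note: lentivirally expressed fusions sorted by FACS into six bins by GFP to DsRed ratio, PSI derived from sequencing read proportions per bin multiplied by bin number.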

Protein stability index, by site and new letter:
E14: S 3.77; M 3.82; I 3.25; F 3.09; W 2.63; Q 2.73; C 3.71; V 2.95; Y 2.97; N 4.24; D 3.1; G 3.31; T 3.12; P 3.52; L 2.34; R 3.77; K 3.75; A 4.22; H 3.82
K11: Y 3.03; V 3.17; W 3.23
A20: I 3.46; H 3.45; M 3.25; D 3.67; E 3.76; C 3.75; K 3.25; G 3.16; L 2.63; N 3.55; P 3.53; F 3.18
I18: S 2.53; W 2.41; G 4.05; C 3.87; D 3.52; V 3.56; N 3.79; Y 3.48; E 3.99; Q 3.91; A 3.48; T 3.9; P 3.43; F 2.97; H 3.29; K 3.83; L 3.18; M 3.73; R 3
E17: Y 4.23; Q 3.86; C 4.6; N 3.83; H 4.49; F 4.53; P 3.72; D 3.13; W 3.01; L 2.6; G 2.53; A 4.67; R 3.38; K 3.98; V 2.6; M 3.27; T 4.77; S 4.02; I 2.85
C15: D 4.8; S 4.29; G 4.96; N 4.76; A 4.3; W 3.88; V 4.42; I 4.04; L 3.97; F 3.39; Q 4.48; E 4.82; Y 3.68; H 4.09; K 4.75; M 4.88; P 4.51; R 4.29; T 4.63
G16: H 3.31; A 3.54; I 2.67; V 3.61; Q 3.23; P 4.06; E 4; T 3.43; C 2.84; F 2.92; M 3.45; S 3.14; L 3.22; R 3; D 3.9; N 3.09; W 2.64; Y 3.18; K 3.27
F19: R 3.75; P 3.75; N 4.37; M 3.56; V 3.46; K 4.08; Q 3.83; S 3.84; C 4.9; T 4.1; G 4.28; H 4.82; I 3.37; E 4.25; D 4.87; Y 3.7; A 4.38; W 2.47; L 3.16
P13: W 2.71; R 2.94; I 3.57; H 3.39; N 4.29; K 3.59; T 3.34; Y 3.57; E 4.69; M 2.71; V 3.48; A 3.78; S 3.41; L 3.56; F 2.52; C 3.1; D 4.34; G 3.71; Q 3.67
C12: K 4.26; G 3.98; R 4.2; P 4.42; N 4.45; M 4.35; Y 4.3; D 5.18; W 3.62; A 4.27; Q 4.35; I 3.6; H 4.13; F 4.12; L 3.77; V 3.31; E 4.53; T 4.57; S 4.52
